Assay results taken from US20130136748A1 (Ablynx, published 2013).
Numbering of substitutions follows the chain as printed. Names and notes keep the numbering of the source.

T1: cHER3ECD (Maccaca fascicularis HER3 extracellular domain) (Macaca fascicularis, UniProt P21860 20-643 (human entry))
T1 construct: also called cyno HER3ECD; cyno HER3-ECD
T1 chain: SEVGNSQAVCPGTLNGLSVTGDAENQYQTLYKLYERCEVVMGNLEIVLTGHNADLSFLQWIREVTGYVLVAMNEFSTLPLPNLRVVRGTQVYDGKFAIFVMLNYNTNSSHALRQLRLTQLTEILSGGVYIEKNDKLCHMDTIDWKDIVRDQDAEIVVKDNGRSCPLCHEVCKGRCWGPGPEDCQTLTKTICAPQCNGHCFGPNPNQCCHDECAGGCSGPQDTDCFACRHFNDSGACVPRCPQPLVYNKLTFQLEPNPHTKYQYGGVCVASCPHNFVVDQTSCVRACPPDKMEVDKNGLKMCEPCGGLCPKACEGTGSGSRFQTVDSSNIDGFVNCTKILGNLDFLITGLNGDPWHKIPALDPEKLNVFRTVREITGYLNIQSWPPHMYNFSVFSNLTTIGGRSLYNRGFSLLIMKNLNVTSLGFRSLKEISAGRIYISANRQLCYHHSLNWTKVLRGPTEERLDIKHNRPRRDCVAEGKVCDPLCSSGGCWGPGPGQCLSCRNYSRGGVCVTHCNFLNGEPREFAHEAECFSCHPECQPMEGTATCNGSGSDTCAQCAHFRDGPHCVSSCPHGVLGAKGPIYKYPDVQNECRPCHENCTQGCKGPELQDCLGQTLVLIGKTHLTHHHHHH

T2: Chimeric chicken Her3-human domain 1 (AA1-206 human, AA207-642 chicken) (chicken/human chimera)
T2 construct: Transmembrane and extracellular regions, on HEK293 cells
T2 chain: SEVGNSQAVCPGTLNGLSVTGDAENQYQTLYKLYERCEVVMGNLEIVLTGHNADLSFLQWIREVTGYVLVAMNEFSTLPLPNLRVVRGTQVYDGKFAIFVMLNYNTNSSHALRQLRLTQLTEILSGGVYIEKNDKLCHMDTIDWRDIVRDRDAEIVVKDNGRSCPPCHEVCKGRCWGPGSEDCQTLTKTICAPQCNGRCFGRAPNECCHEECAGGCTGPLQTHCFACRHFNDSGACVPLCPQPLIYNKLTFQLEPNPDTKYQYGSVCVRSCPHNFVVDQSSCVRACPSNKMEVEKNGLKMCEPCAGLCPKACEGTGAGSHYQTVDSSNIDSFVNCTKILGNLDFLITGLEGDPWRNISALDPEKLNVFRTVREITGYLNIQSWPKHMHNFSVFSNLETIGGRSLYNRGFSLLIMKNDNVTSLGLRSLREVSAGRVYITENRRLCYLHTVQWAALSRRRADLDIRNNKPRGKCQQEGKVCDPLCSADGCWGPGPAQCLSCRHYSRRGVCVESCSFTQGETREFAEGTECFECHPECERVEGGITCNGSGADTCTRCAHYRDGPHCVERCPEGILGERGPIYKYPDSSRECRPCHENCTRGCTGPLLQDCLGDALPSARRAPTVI

B1: 18B05 (VHH)
VHH: EVQLVESGGGLVQAGGSLRLSCAASGLTFGSAPMGWYRQAPGKERELVAYISGDERIWYGDSVKGRFTISRDTTKNTLYLQMNSLKPEDTAVYYCVSDVKVRHWGQGTQVTVSS
B2: 17E08 (VHH)
VHH: EVQLVESGGGLVQPGGSLRLSCSASGSIFGLNAMGWYRQTPGKERELVAGITSITRVGSTRYADSAKGRFTISGDYAKNTVYLQMNSLKPEDTGVYYCRMSIVKSGGADYWGQGTQVTVSS
B3: 18F05 (VHH)
VHH: EVQLVESGGGLVQPGGSLRLSCVASGFTFSSYWMYWVRQAPGKGVEWVSAISPGGVERYTDSVKGRFTISRDNAKNTLYLQMNSLKSEDTAMYYCARLTSFATPESQGTQVTVSS
notes: also called 18F5
B4: HER3MS00076 (VHH)
VHH: EVQLVESGGGLVQPGGSLRLSCAASGSIGGLNAMAWYRQAPGKERELVAGIFGVGSTRYADSVKGRFTISRDISKNTVFLQMNSLRSEDTAVYYCRMSSVTRGSSDYWGQGTLVTVSS
notes: 17B05 + A74S, N83R, Q108L; also called HER3MS0076; 17B05 basic variant
B5: HER3MS00080 (VHH)
VHH: B4 VHH with I73N, F79Y
notes: 17B05 basic + I73N + F79Y; also called HER3MS0080
B6: HER3MS00083 (VHH)
VHH: B4 VHH with I73N, F79Y, R96A
notes: also called HER3MS0083
B7: HER3MS00085 (VHH)
VHH: B4 VHH with S87A
notes: 17B05 basic + S84A; also called HER3MS0085
B8: HER3MS00084 (VHH)
VHH: B4 VHH with S87P
notes: 17B05 basic + S84P; also called HER3MS0084
B9: HER3MS00043 (VHH)
VHH: EVQLVESGGGLVQPGGSLRLSCAASGFTFSSYPMSWVRQAPGKGPEWVSTVSPGGITTSYADSVKGRFTISRDNSKNTLYLQMNSLRPEDTAVYYCLRDLNNRGQGTLVTVSS
notes: 04C07 basic + A46E; also called HER3MS0043
B10: HER3MS00044 (VHH)
VHH: B9 VHH with E46A, L97A
notes: 04C07 basic + L93A; also called HER3MS0044

Molecular target: T3, human HER1 (human, UniProt P00533 25-1210)
T3 construct: also called EGFR; ErbB1
Test: FACS, CHO-HER1

binding result | Binder
no binding (tested: 2000 nM) | B1
no binding (tested: 2000 nM) | B2
no binding (tested: 2000 nM) | B3

Molecular target: T3, human HER1
Test: FACS CHO-HER1, 2000 nM

MCF | Binder
61 | B1
59 | B2
133 | B3

Molecular target: T4, hHER3 full length (human, UniProt P21860 20-1342)
T4 construct: On transfected CHO, CHO HER2/HER3, CHO EGFR/HER3 or CHO Flp-In cells; endogenous HER3 of MCF-7 and MDA-MB468 cells in the signalling assays; also called human HER3
Test: FACS, 400 nM, competitor 21B02-biotin

% competition [%] | Binder
0 | B1
5 | B2
0 | B3

Molecular target: T1, cHER3ECD (Maccaca fascicularis HER3 …)
Test: ELISA, coated cHER3-ECD

EC50 [nM] | Binder
0.45 | B1
1.15 | B2
0.29 | B3

Molecular target: T5, hHER3 ECD (human HER3 extracellular domain) (human, UniProt P21860 20-643)
T5 construct: also called recombinant HER3-ECD
Test: ELISA, coated hHER3-ECD

EC50 [nM] | Binder
0.4 | B1
1.02 | B2
0.29 | B3

Molecular target: T6, human HER4 (human, UniProt Q15303 26-1308)
T6 sequence (Q15303 26-1308 limits assumed): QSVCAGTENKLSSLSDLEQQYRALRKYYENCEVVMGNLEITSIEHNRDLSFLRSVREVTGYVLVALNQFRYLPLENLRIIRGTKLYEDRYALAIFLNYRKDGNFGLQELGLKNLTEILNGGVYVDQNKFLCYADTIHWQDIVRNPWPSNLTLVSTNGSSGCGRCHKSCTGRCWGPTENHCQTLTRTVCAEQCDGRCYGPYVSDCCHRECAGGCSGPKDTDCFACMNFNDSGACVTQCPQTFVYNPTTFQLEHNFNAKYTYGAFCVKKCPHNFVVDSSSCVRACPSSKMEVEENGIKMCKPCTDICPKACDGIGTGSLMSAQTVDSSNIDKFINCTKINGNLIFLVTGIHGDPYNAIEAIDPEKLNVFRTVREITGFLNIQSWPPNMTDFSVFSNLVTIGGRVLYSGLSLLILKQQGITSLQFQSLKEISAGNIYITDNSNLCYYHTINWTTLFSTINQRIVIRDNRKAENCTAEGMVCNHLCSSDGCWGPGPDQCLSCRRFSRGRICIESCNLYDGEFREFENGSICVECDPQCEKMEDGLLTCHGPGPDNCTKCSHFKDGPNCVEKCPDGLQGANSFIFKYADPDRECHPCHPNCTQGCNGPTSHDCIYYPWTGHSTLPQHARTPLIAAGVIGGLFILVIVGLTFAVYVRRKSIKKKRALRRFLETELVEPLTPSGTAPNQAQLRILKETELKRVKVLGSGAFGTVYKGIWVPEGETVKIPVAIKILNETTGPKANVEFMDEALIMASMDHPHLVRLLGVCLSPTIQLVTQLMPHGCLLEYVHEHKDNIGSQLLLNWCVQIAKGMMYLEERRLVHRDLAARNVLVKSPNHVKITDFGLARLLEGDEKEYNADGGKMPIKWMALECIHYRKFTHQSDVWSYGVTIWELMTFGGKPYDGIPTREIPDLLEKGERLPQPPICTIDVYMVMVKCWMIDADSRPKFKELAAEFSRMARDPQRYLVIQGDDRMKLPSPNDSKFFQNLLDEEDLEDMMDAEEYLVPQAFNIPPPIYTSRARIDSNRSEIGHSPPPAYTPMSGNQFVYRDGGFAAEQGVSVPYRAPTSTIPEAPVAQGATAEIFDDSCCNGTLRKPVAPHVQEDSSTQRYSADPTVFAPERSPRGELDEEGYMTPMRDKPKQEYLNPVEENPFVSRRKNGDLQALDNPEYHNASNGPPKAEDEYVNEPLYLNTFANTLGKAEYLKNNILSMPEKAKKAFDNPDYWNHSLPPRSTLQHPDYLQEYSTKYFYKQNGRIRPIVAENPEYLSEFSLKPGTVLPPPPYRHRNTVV
Test: FACS, CHO-HER4

binding result | Binder
no binding (tested: 2000 nM) | B1
no binding (tested: 2000 nM) | B2
no binding (tested: 2000 nM) | B3

Molecular target: T4, hHER3 full length
Test: cell-based or functional assay

IC50, HRG1-β1 induced pAkt, MCF-7 [M] | inhibition of HRG1-β1 induced pERK1/2, MCF-7 [% inhibition] | IC50, HRG1-β1 induced pERK1/2, MCF-7 [M] | Binder
6.02e-09 | < 50 |  | B1
5.78e-09 |  | 2.78e-09 | B2
8.04e-09 |  | 8.98e-08 | B3

Molecular target: T5, hHER3 ECD (human HER3 extracellular …)
Test: SPR off rate on HER3-ECD

koff [s⁻¹] | Binder
0.00017 | B4
0.00018 | B5
0.00084 | B6
0.00019 | B7
0.00018 | B8

Molecular target: T7, human HER2 (human, UniProt P04626 23-1255)
T7 construct: also called hHER2
Test: FACS, CHO-HER2

binding result | Binder
no binding (tested: 2000 nM) | B1
no binding (tested: 2000 nM) | B2
no binding (tested: 2000 nM) | B3

Molecular target: T8, human HER3-Fc (R&D Systems, 348-RB) (human, UniProt P21860 20-643)
T8 construct: Bought; also called hHER3-Fc; Fc-HER3; Fc part of the bought chimera not given, not described
Test: SPR, HER3-Fc captured by anti-Fc

Kd [nM] | kon [M⁻¹ s⁻¹] | Binder
0.29 | 490000 | B1
0.11 | 363000 | B2
0.24 | 427000 | B3

Molecular target: T4, hHER3 full length
Test: FACS, 400 nM, competitor 23F05-biotin

% competition [%] | Binder
0 | B1
0 | B2
0 | B3

Molecular target: T6, human HER4
Test: FACS CHO-HER4, 667 nM

MCF | Binder
95 | B1
117 | B2
149 | B3

Molecular target: T7, human HER2
Test: FACS CHO-HER2, 2000 nM

MCF | Binder
77 | B1
73 | B2
256 | B3

Molecular target: T7, human HER2
Test: FACS CHO-HER2, 222 nM

MCF | Binder
61 | B1
51 | B2
436 | B3

Molecular target: T6, human HER4
Test: FACS CHO-HER4, 222 nM

MCF | Binder
60 | B1
110 | B2
149 | B3

Molecular target: T4, hHER3 full length
Test: cell-based or functional assay
Remark: another data set of the same source

IC50, HRG1-β1 induced pHER3, MCF-7 [M] | IC50, HRG1-β1 induced pHER3, MDA-MB468 [M] | Binder
5.18e-09 | 3e-08 | B1
4.51e-09 | 2.46e-08 | B2
1.53e-09 | 1.8e-08 | B3

Molecular target: T4, hHER3 full length
Test: FACS, 400 nM, competitor 18E08-biotin

% competition [%] | Binder
0 | B1
0 | B2
0 | B3

Molecular target: T4, hHER3 full length
Test: FACS, 400 nM, competitor 17C08-biotin

% competition [%] | Binder
0 | B1
0 | B2
0 | B3

Molecular target: T3, human HER1
Test: FACS CHO-HER1, 667 nM

MCF | Binder
101 | B1
52 | B2
60 | B3

Molecular target: T4, hHER3 full length
Test: FACS, 400 nM, competitor 04C07-biotin

% competition [%] | Binder
98 | B1
100 | B2
100 | B3

Molecular target: T3, human HER1
Test: FACS CHO-HER1, 222 nM

MCF | Binder
82 | B1
66 | B2
154 | B3

Molecular target: T4, hHER3 full length
Test: FACS competition with HRG1-β1-EGF, CHO-HER3

IC50 [nM] | Binder
16.1 | B1
75.9 | B2
20.1 | B3

Molecular target: T2, Chimeric chicken Her3-human domain 1 …
Test: FACS, HEK293 with chimeric HER3

binding result | Binder
binds | B1
binds | B2
binds | B3

Molecular target: T8, human HER3-Fc (R&D Systems, 348-RB)
Test: HRG competition alphascreen

IC50 [nM] | Binder
0.788 | B4
0.731 | B5
4.95 | B6
0.76 to 0.94 | B7
0.94 | B8

Molecular target: T6, human HER4
Test: FACS CHO-HER4, 2000 nM

MCF | Binder
96 | B1
242 | B2
120 | B3

Molecular target: T8, human HER3-Fc (R&D Systems, 348-RB)
Test: HRG competition alphascreen
Remark: another data set of the same source

IC50 [nM] | Binder
1.02 | B9
1 | B10

Molecular target: T4, hHER3 full length
Test: FACS, 400 nM, competitor 04F10-biotin

% competition [%] | Binder
31 | B1
32 | B2
15 | B3

Molecular target: T7, human HER2
Test: FACS CHO-HER2, 667 nM

MCF | Binder
63 | B1
51 | B2
347 | B3
